Source: IntAct's records for PubMed 25910212

B1: Emerin (Homo sapiens), P50402 (parent)
chain: MDNYADLSDTELTTLLRRYNIPHGPVVGSTRRLYEKKIFEYETQRRRLSPPSSSAASSYSFSDLNSTRGDADMYDLPKKEDALLYQSKGYNDDYYEESYFTTRTYGEPESAGPSRAVRQSVTSFPDADAFHHQVHDDDLLSSSEEECKDRERPMYGRDSAYQSITHYRPVSASRSSLDLSYYPTSSSTSFMSSSSSSSSWLTRRAIRPENRAPGAGLGQDRQVPLWGQLLLFLVFVIVLFFIYHFMQAEEGNPF
partner: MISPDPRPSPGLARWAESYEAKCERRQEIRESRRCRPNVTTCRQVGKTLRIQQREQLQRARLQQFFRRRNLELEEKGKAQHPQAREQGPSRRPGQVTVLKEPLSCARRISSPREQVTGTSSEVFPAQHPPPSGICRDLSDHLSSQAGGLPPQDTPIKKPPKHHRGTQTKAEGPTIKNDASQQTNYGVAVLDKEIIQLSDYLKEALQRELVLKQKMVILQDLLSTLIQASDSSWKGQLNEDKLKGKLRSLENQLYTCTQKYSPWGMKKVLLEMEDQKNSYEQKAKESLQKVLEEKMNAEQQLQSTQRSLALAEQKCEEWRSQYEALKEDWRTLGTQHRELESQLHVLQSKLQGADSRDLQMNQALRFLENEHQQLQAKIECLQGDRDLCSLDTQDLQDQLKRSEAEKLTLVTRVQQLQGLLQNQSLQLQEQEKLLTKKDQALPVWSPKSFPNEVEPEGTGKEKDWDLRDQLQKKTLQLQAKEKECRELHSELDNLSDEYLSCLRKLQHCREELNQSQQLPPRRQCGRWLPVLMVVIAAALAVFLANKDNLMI
B2: EGF-containing fibulin-like extracellular matrix protein 1 (Homo sapiens), Q12805 (parent)
chain: MLKALFLTMLTLALVKSQDTEETITYTQCTDGYEWDPVRQQCKDIDECDIVPDACKGGMKCVNHYGGYLCLPKTAQIIVNNEQPQQETQPAEGTSGATTGVVAASSMATSGVLPGGGFVASAAAVAGPEMQTGRNNFVIRRNPADPQRIPSNPSHRIQCAAGYEQSEHNVCQDIDECTAGTHNCRADQVCINLRGSFACQCPPGYQKRGEQCVDIDECTIPPYCHQRCVNTPGSFYCQCSPGFQLAANNYTCVDINECDASNQCAQQCYNILGSFICQCNQGYELSSDRLNCEDIDECRTSSYLCQYQCVNEPGKFSCMCPQGYQVVRSRTCQDINECETTNECREDEMCWNYHGGFRCYPRNPCQDPYILTPENRCVCPVSNAMCRELPQSIVYKYMSIRSDRSVPSDIFQIQATTIYANTINTFRIKSGNENGEFYLRQTSPVSAMLVLVKSLSGPREHIVDLEMLTVSSIGTFRTSSVLRLTIIVGPFSF
B3: Meiotic recombination protein DMC1/LIM15 homolog (Homo sapiens), Q14565 (parent)
chain: MKEDQVVAEEPGFQDEEESLFQDIDLLQKHGINVADIKKLKSVGICTIKGIQMTTRRALCNVKGLSEAKVDKIKEAANKLIEPGFLTAFEYSEKRKMVFHITTGSQEFDKLLGGGIESMAITEAFGEFRTGKTQLSHTLCVTAQLPGAGGYPGGKIIFIDTENTFRPDRLRDIADRFNVDHDAVLDNVLYARAYTSEHQMELLDYVAAKFHEEAGIFKLLIIDSIMALFRVDFSGRGELAERQQKLAQMLSRLQKISEEYNVAVFVTNQMTADPGATMTFQADPKKPIGGHILAHASTTRISLRKGRGELRIAKIYDSPEMPENEATFAITAGGIGDAKE
partner: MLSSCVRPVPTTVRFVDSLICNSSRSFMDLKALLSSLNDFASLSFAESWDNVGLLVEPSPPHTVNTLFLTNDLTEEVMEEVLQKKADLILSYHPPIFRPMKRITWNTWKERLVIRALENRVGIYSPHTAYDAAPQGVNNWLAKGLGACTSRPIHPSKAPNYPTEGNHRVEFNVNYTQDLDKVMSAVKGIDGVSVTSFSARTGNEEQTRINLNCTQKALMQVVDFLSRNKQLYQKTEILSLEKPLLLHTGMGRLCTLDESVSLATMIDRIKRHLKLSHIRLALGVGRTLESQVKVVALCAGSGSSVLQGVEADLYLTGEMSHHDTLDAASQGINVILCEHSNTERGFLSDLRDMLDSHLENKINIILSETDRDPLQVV
B4: U4/U6 small nuclear ribonucleoprotein Prp31 (Homo sapiens), Q8WWY3 (parent)
chain: MSLADELLADLEEAAEEEEGGSYGEEEEEPAIEDVQEETQLDLSGDSVKTIAKLWDSKMFAEIMMKIEEYISKQAKASEVMGPVEAAPEYRVIVDANNLTVEIENELNIIHKFIRDKYSKRFPELESLVPNALDYIRTVKELGNSLDKCKNNENLQQILTNATIMVVSVTASTTQGQQLSEEELERLEEACDMALELNASKHRIYEYVESRMSFIAPNLSIIIGASTAAKIMGVAGGLTNLSKMPACNIMLLGAQRKTLSGFSSTSVLPHTGYIYHSDIVQSLPPDLRRKAARLVAAKCTLAARVDSFHESTEGKVGYELKDEIERKFDKWQEPPPVKQVKPLPAPLDGQRKKRGGRRYRKMKERLGLTEIRKQANRMSFGEIEEDAYQEDLGFSLGHLGKSGSGRVRQTQVNEATKARISKTLQRTLQKQSVVYGGKSTIRDRSSGTASSVAFTPLQGLEIVNPQAAEKKVAEANQKYFSSMAEFLKVKGEKSGLMST
partner: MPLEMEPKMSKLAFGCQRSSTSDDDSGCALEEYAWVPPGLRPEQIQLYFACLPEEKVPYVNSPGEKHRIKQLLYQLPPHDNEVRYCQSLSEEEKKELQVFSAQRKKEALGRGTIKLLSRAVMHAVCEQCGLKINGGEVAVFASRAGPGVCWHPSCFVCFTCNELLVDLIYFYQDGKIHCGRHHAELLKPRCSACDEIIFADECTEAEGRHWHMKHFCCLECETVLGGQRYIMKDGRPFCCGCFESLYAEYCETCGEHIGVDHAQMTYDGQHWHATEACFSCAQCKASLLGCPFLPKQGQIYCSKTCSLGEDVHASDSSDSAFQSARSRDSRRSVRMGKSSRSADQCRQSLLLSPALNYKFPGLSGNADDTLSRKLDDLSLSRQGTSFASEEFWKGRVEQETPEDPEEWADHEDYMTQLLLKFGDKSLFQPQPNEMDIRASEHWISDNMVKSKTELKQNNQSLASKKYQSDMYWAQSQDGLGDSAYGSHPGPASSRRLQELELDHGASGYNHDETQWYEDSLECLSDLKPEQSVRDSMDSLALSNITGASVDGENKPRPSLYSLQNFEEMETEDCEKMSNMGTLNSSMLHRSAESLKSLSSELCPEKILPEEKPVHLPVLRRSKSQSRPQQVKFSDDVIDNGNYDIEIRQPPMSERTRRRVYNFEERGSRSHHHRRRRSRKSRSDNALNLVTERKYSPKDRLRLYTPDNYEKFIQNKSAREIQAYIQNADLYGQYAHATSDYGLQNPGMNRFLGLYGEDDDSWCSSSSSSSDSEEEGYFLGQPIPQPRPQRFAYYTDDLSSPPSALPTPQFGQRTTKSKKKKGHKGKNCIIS
B5: Tumor necrosis factor receptor superfamily member 13B (Homo sapiens), O14836-2 (parent)
chain: MSGLGRSRRGGRSRVDQEERWSLSCRKEQGKFYDHLLRDCISCASICGQHPKQCAYFCENKLRSPVNLPPELRRQRSGEVENNSDNSGRYQGLEHRGSEASPALPGLKLSADQVALVYSTLGLCLCAVLCCFLVAVACFLKKRGDPCSCQPRSRPRQSPAKSSQDHAMEAGSPVSTSPEPVETCSFCFPECRAPTQESAVTPGTPDPTCAGRWGCHTRTTVLQPCPHIPDSGLGIVCVPAQEGGPGA
B6: Mothers against decapentaplegic homolog 3 (Homo sapiens), P84022 (parent)
chain: MSSILPFTPPIVKRLLGWKKGEQNGQEEKWCEKAVKSLVKKLKKTGQLDELEKAITTQNVNTKCITIPRSLDGRLQVSHRKGLPHVIYCRLWRWPDLHSHHELRAMELCEFAFNMKKDEVCVNPYHYQRVETPVLPPVLVPRHTEIPAEFPPLDDYSHSIPENTNFPAGIEPQSNIPETPPPGYLSEDGETSDHQMNHSMDAGSPNLSPNPMSPAHNNLDLQPVTYCEPAFWCSISYYELNQRVGETFHASQPSMTVDGFTDPSNSERFCLGLLSNVNRNAAVELTRRHIGRGVRLYYIGGEVFAECLSDSAIFVQSPNCNQRYGWHPATVCKIPPGCNLKIFNNQEFAALLAQSVNQGFEAVYQLTRMCTIRMSFVKGWGAEYRRQTVTSTPCWIELHLNGPLQWLDKVLTQMGSPSIRCSSVS
partner: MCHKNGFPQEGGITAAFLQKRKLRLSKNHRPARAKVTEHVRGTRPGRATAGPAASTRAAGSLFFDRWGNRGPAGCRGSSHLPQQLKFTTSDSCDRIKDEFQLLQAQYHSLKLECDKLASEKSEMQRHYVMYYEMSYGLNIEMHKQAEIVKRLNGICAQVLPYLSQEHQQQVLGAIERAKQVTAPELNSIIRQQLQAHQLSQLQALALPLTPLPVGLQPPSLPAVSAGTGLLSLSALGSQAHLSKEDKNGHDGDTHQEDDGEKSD
B7: Carbonyl reductase [NADPH] 3 (Homo sapiens), O75828 (parent)
chain: MSSCSRVALVTGANRGIGLAIARELCRQFSGDVVLTARDVARGQAAVQQLQAEGLSPRFHQLDIDDLQSIRALRDFLRKEYGGLNVLVNNAAVAFKSDDPMPFDIKAEMTLKTNFFATRNMCNELLPIMKPHGRVVNISSLQCLRAFENCSEDLQERFHSETLTEGDLVDLMKKFVEDTKNEVHEREGWPNSPYGVSKLGVTVLSRILARRLDEKRKADRILVNACCPGPVKTDMDGKDSIRTVEEGAETPVYLALLPPDATEPQGQLVHDKVVQNW
B8: E3 ubiquitin-protein ligase Midline-1 (Homo sapiens), O15344 (parent)
chain: METLESELTCPICLELFEDPLLLPCAHSLCFNCAHRILVSHCATNESVESITAFQCPTCRHVITLSQRGLDGLKRNVTLQNIIDRFQKASVSGPNSPSETRRERAFDANTMTSAEKVLCQFCDQDPAQDAVKTCVTCEVSYCDECLKATHPNKKPFTGHRLIEPIPDSHIRGLMCLEHEDEKVNMYCVTDDQLICALCKLVGRHRDHQVAALSERYDKLKQNLESNLTNLIKRNTELETLLAKLIQTCQHVEVNASRQEAKLTEECDLLIEIIQQRRQIIGTKIKEGKVMRLRKLAQQIANCKQCIERSASLISQAEHSLKENDHARFLQTAKNITERVSMATASSQVLIPEINLNDTFDTFALDFSREKKLLECLDYLTAPNPPTIREELCTASYDTITVHWTSDDEFSVVSYELQYTIFTGQANVVSLCNSADSWMIVPNIKQNHYTVHGLQSGTKYIFMVKAINQAGSRSSEPGKLKTNSQPFKLDPKSAHRKLKVSHDNLTVERDESSSKKSHTPERFTSQGSYGVAGNVFIDSGRHYWEVVISGSTWYAIGLAYKSAPKHEWIGKNSASWALCRCNNNWVVRHNSKEIPIEPAPHLRRVGILLDYDNGSIAFYDALNSIHLYTFDVAFAQPVCPTFTVWNKCLTIITGLPIPDHLDCTEQLP
partner: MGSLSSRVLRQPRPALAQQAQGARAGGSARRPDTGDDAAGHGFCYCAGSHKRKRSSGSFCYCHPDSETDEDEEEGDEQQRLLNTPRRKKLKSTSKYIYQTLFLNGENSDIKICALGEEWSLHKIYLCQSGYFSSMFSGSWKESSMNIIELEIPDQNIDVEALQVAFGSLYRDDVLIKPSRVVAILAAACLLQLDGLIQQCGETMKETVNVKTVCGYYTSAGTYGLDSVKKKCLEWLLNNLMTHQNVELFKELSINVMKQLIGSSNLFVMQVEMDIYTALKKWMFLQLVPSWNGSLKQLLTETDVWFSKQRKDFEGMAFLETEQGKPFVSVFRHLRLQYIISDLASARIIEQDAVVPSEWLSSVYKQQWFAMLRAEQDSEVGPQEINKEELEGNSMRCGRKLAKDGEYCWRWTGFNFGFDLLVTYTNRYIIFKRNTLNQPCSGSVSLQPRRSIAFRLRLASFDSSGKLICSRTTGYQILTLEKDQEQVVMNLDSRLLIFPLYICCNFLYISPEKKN

Variants of: B1
Details: with TRAF3IP3, Q9Y228

Variant	effect of a mutation on the interaction
D72V	with no effect
P183T	with no effect
P183H	with no effect

Variants of: B2
Details: with sgta_human SGTA
Target sequence in this assay (O43765 whole entry): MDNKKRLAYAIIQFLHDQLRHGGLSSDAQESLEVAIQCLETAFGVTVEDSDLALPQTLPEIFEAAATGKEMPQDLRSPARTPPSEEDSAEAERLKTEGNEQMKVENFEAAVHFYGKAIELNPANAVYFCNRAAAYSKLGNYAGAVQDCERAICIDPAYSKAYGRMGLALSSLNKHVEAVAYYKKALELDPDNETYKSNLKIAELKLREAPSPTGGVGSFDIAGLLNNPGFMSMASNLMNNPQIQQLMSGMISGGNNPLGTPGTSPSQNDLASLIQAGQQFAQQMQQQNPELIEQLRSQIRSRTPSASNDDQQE

Variant	effect of a mutation on the interaction
R345W	with no effect

Variants of: B2
Details: with meox2_human MEOX2, P50222
Sequence of meox2_human MEOX2, P50222 (P50222 whole entry): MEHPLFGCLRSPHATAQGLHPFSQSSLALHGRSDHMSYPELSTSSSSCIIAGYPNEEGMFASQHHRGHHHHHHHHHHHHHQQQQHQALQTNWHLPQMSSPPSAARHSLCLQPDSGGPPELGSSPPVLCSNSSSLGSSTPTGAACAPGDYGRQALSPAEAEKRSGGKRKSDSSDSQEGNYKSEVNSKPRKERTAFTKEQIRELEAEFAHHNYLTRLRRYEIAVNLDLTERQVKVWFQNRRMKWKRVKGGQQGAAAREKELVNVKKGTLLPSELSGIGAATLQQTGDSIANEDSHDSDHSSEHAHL

Variant	effect of a mutation on the interaction
R345W	with no effect

Variants of: B3
Details: with nif3l_human NIF3L1, Q9GZT8

Variant	effect of a mutation on the interaction
M200V	disrupting interaction strength

Variants of: B4
Details: with pric1_human PRICKLE1, Q96MT3

Variant	effect of a mutation on the interaction
L107V	with no effect

Variants of: B5
Details: with sgta_human SGTA
Target sequence in this assay (O43765 whole entry): as the sequence (O43765 whole entry) above

Variant	effect of a mutation on the interaction
K142M	with no effect
L125R	disrupting interaction strength
P205L	with no effect
V200F	with no effect
V174A	with no effect
C58R	with no effect
A103T	with no effect

Variants of: B6
Details: with TLE5, Q08117-2

Variant	effect of a mutation on the interaction
I170V	with no effect
N197I	with no effect

Variants of: B7
Details: with sdcb1_human SDCBP

Variant	effect of a mutation on the interaction
V244M	disrupting interaction strength

Variants of: B8
Details: with gmcl1_human GMCL1, Q96IK5

Variant	effect of a mutation on the interaction
P151L	with no effect
C266R	with no effect
K370E	with no effect
